Assay results from EP2014310A2 (Dyax Corporation, dated 2009).
Bridge positions count the residues as written; N and C are the ends.

B1: SEQ ID NO:487 (peptide)
peptide: Ac-GDSSVCFEYSWGGEVCFRYDPGGGK-NH2
modifications: disulfide 6-16 (inferred); not fully specified; also: C-terminal Lys fluorescein-labeled in some assay forms
B2: SEQ ID NO:284 (peptide)
peptide: Ac-AGVGWVECYQSTGFCYHSRDGTGGGK-NH2
modifications: cysteine pairing not given here; also: C-terminal Lys fluorescein-labeled in some assays
B3: SEQ ID NO:488 (peptide)
peptide: Ac-GDSRVCWEYSWGGQICLGYDPGGGK-NH2
modifications: disulfide 6-16 (inferred); not fully specified; also: C-terminal Lys fluorescein-labeled in some assay forms
B4: SEQ ID NO:297 (peptide)
peptide: Ac-GDDSYCMMNEKGWWNCYLYDPGGGK-NH2
modifications: cysteine pairing not given here; also: C-terminal Lys fluorescein-labeled in some assays
B5: SEQ ID NO:266 (peptide)
peptide: Ac-AGWVECWWKSGQCYEFGTGGGK-NH2
modifications: cysteine pairing not given here; also: C-terminal Lys fluorescein-labeled for some assays, unlabeled for others

Biological target: T1, human KDR-Fc fusion (R&D Systems #357-KD-050) (human, UniProt P35968 20-764)
T1 construct: bought
T1 sequence (P35968 20-764): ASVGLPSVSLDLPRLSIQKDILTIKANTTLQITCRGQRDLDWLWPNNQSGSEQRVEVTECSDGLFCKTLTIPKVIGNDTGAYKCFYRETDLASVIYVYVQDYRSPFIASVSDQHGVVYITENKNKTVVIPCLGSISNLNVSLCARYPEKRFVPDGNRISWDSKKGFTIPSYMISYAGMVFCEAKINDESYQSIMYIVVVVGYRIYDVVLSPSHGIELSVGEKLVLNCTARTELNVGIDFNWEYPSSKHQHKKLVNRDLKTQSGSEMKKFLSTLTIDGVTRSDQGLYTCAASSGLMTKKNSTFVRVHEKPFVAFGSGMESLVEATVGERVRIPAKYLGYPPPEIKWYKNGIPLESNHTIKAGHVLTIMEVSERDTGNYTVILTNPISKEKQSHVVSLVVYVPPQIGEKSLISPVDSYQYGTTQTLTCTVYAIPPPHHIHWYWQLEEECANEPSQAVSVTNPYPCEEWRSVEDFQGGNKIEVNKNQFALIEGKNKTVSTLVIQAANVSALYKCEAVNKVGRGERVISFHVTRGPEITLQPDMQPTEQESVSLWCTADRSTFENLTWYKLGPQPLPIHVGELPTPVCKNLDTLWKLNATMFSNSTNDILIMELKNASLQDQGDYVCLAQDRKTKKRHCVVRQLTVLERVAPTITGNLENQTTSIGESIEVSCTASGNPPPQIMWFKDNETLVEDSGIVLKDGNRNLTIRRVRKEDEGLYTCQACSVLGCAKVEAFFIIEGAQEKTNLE
Experiment: fluorescence anisotropy, fluorescein-labeled peptide

Point of comparison: Ac-AGANWCEEDWYYCYITGTGGGK-NH2 (disulfide 6-13 (inferred); not fully specified) [SEQ ID NO:281], Kd 180 nM. Against it:
- Ac-SGRLDCDKVFSGPHGKICVNYGSGGGK-NH2 (disulfide 6-18 (inferred); not fully specified) [SEQ ID NO:317] — 11-fold higher, ~2000 nM
- Ac-AGVAWVECYQTTGKCYTFRGGTGGGK-NH2 (disulfide 8-15 (inferred); not fully specified) [SEQ ID NO:291] — 11-fold higher, ~2000 nM
- B1 — 3.1-fold lower, 58 nM
- B2 — 7.2-fold higher, 1300 nM
- Ac-AGGGWVECRAETGHCQEYRLGTGGGK-NH2 (disulfide 8-15 (inferred); not fully specified) [SEQ ID NO:290] — 8.9-fold higher, 1600 nM
- Ac-AQRSWYLGPPYYEEWDPIPNGGK-NH2 (not fully specified) [SEQ ID NO:309] — 10-fold higher, 1800 nM
- Ac-SGRTTCHHQISGPHGKICVNYGSGGGK-NH2 (disulfide 6-18 (inferred); not fully specified) [SEQ ID NO:318] — 3.6-fold higher, 650 nM
- Ac-AGPDWCAADWYYCYITGTGGGK-NH2 (disulfide 6-13 (inferred); not fully specified) [SEQ ID NO:275] — 3.2-fold lower, 57 nM
- Ac-AGERWVECRAETGFCYTWVSGTGGGK-NH2 (disulfide 8-15 (inferred); not fully specified) [SEQ ID NO:289] — 12-fold higher, 2100 nM
- Ac-AGFTWVECHQATGRCVEWTTGTGGGK-NH2 (disulfide 8-15 (inferred); not fully specified) [SEQ ID NO:285] — 11-fold higher, 2000 nM
- Ac-AGVWECAKTFPFCHWFGTGGGK-NH2 (disulfide 6-13 (inferred); not fully specified) [SEQ ID NO:265] — 14-fold higher, 2600 nM
- Ac-SGRLDCDKVFSGPYGKVCVSYGSGGGK-NH2 (disulfide 6-18 (inferred); not fully specified) [SEQ ID NO:316] — 5.8-fold higher, 1050 nM
- B3 — 1.8-fold higher, 320 nM
- Ac-AQQVQYQFFLGTPRYEQWDLDKGGK-NH2 (not fully specified) [SEQ ID NO:304] — 9.4-fold higher, 1700 nM
- Ac-AGSDWCRVDWYYCWLMGTGGGK-NH2 (disulfide 6-13 (inferred); not fully specified) [SEQ ID NO:270] — 2.8-fold lower, 64 nM
- Ac-SGAHQCHHWTSGPYGEVCFNYGSGGGK-NH2 (disulfide 6-18 (inferred); not fully specified) [SEQ ID NO:319] — 11-fold higher, ~2000 nM
- Ac-AGPEWCEVDWYYCWLLGTGGGK-NH2 (disulfide 6-13 (inferred); not fully specified) [SEQ ID NO:276] — 2.4-fold lower, 75 nM
- B4 — 7.2-fold higher, 1300 nM
- Ac-GSNSHCYIWDGMWLCFPDAPGGGK-NH2 (disulfide 6-15 (inferred); not fully specified) [SEQ ID NO:315] — 4.1-fold higher, 740 nM
- Ac-AGDSWVECDAQTGFCYSFLYGTGGGK-NH2 (disulfide 8-15 (inferred); not fully specified) [SEQ ID NO:287] — 13-fold higher, 2300 nM
- Ac-AGWIQCNSITGHCTSGGTGGGK-NH2 (disulfide 6-13 (inferred); not fully specified) [SEQ ID NO:268] — within 1.5-fold, 240 nM
- Ac-AGEGWVECFANTGACFTYPRGTGGGK-NH2 (disulfide 8-15 (inferred); not fully specified) [SEQ ID NO:292] — 12-fold higher, 2100 nM
- Ac-AGDWGCSLGNWYWCSTEGTGGGK-NH2 (disulfide 6-14 (inferred); not fully specified) [SEQ ID NO:313] — 11-fold higher, 2000 nM
- B5 — 7.2-fold higher, 1300 nM
- Ac-AGQAWVECYAETGYCWPRSWGTGGGK-NH2 (disulfide 8-15 (inferred); not fully specified) [SEQ ID NO:282] — 3.9-fold higher, 710 nM
- Ac-AGQAWIECYAEDGYCWPRSWGTGGGK-NH2 (disulfide 8-15 (inferred); not fully specified) [SEQ ID NO:283] — 7.8-fold higher, 1400 nM
- Ac-AGPWTCWLEDHLACAMLGTGGGK-NH2 (disulfide 6-14 (inferred); not fully specified) [SEQ ID NO:312] — 22-fold higher, 3900 nM
- Ac-AGSKWCEQDWYYCWLLGTGGGK-NH2 (disulfide 6-13 (inferred); not fully specified) [SEQ ID NO:278] — 2.2-fold higher, 400 nM
- Ac-AGANWCEEDWYYCWITGTGGGK-NH2 (disulfide 6-13 (inferred); not fully specified) [SEQ ID NO:272] — 1.9-fold lower, 97 nM
- Ac-AGRNWCEEDWYYCFITGTGGGK-NH2 (disulfide 6-13 (inferred); not fully specified) [SEQ ID NO:279] — within 1.5-fold, 190 nM
- Ac-AGPDWCEEDWYYCWITGTGGGK-NH2 (disulfide 6-13 (inferred); not fully specified) [SEQ ID NO:273] — 2.4-fold lower, 75 nM
- Ac-AGANWCEEDWYYCFITGTGGGK-NH2 (disulfide 6-13 (inferred); not fully specified) [SEQ ID NO:271] — 1.7-fold higher, 310 nM
- Ac-AGSNWCEEDWYYCYITGTGGGK-NH2 (disulfide 6-13 (inferred); not fully specified) [SEQ ID NO:274] — 3.9-fold lower, 46 nM
- Ac-AGVNWCEEDWYYCWITGTGGGK-NH2 (disulfide 6-13 (inferred); not fully specified) [SEQ ID NO:280] — within 1.5-fold, 260 nM
- Ac-GDPPLCYFVGTQEWHHCNPFDPGGGK-NH2 (disulfide 6-17 (inferred); not fully specified) [SEQ ID NO:296] — 3.3-fold higher, 600 nM
- Ac-GDNWKCEYTQGYDYTECVYLDPGGGK-NH2 (disulfide 6-17 (inferred); not fully specified) [SEQ ID NO:302] — 4.6-fold higher, 820 nM
- Ac-GDPAQCWESNYQGIFFCDNPDPGGGK-NH2 (disulfide 6-17 (inferred); not fully specified) [SEQ ID NO:298] — 13-fold higher, 2300 nM

Ac-AGGGWVECYWATGRCIEFAGGTGGGK-NH2 (disulfide 8-15 (inferred); not fully specified) [SEQ ID NO:288]: no binding.

Biological target: T1, human KDR-Fc fusion (R&D Systems …)
Experiment: phage binding screen on KDR-Fc; class legend in paragraph 246

PKWCEEDWYYCMIT [phage isolate PKWCEEDWYYCMIT]: binds.
ANWCEEDWYYCFIT [phage isolate ANWCEEDWYYCFIT]: binds.
ANWCEEDWYYCWIT [phage isolate ANWCEEDWYYCWIT]: binds.
ANWCEEDWYYCYIT [phage isolate ANWCEEDWYYCYIT]: binds.
SDWCRVDWYYCWLM [phage isolate SDWCRVDWYYCWLM]: binds.
